The results in this text go back to doi:10.1101/2019.12.17.878660 (bioRxiv, 2019).

This assay concerns the target T1, SurA (E. coli, UniProt P0ABZ6 21-428).
T1 sequence: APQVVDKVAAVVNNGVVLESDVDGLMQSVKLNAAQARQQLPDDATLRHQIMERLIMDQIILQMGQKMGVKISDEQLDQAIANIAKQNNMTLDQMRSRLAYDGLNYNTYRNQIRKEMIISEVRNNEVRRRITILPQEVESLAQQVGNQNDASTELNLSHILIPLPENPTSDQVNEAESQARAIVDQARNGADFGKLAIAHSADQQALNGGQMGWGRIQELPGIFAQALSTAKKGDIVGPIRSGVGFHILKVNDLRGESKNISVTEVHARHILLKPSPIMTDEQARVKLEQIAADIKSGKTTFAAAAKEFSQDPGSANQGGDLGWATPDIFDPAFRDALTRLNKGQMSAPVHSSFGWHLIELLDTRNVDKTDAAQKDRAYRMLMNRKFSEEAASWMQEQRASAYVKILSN
The assay can be described thus: cross-linking.

B1: uOmpX (natural protein, E. coli, UniProt P0A917 24-171, looked up)
chain: ATSTVTGGYAQSDAQGQMNKMGGFNLKYRYEEDNSPLGVIGSFTYTEKSRTASSGDYNKNQYYGITAGPAYRINDWASIYGVVGVGYGKFQTTEYPTYKHDTSDYGFSYGAGLQFNPMENVALDFSYEQSRIRSVDVGTWIAGVGYRF
Turning to B1, the binding result is “binds”.
